Several values for one entry are separate records, joined by “and”; a condition that tells them apart may be missing. Equal entries are not always repeated.
What was measured:
[1] = molecular target: His-tagged recombinant human FcγRIIIa (158 V) (human); assay: SPR; Biacore T200; His-tagged FcγR captured by an anti-His antibody on a CM5 chip; dilution series of antibody as analyte; 1:1 kinetic binding model; triplicate
[2] = molecular target: His-tagged recombinant human FcγRIIIb (human) (UniProt O75015); assay: as above
Sequence of UniProt O75015 (O75015 17-200): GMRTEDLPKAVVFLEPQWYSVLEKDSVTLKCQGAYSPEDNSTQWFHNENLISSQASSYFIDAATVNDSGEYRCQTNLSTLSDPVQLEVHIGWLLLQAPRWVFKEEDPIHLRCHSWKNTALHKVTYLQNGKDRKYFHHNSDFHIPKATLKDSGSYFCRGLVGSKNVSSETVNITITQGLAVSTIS

Substance	Kd [1]	Kd [2]
ABP 980 (antibody)	0.0913 µM	8.14 µM and 8.29 µM
Trastuzumab (EU) (antibody)	0.193 µM	13.8 µM
Trastuzumab (US) (antibody)	0.146 µM	11.8 µM

From PMC6834741
